# Earlier results as cited in paper PMC3479961.
# How the values were obtained:
# Assay in all cases: surface plasmon resonance
# [1] = molecular target: plasmin (Homo sapiens) (UniProt P00747)
# [2] = molecular target: plasminogen (Homo sapiens) (UniProt P00747)
# [3] = molecular target: tPA (Homo sapiens) (UniProt P00750)
# UniProt P00750, sequence (P00750 36-562): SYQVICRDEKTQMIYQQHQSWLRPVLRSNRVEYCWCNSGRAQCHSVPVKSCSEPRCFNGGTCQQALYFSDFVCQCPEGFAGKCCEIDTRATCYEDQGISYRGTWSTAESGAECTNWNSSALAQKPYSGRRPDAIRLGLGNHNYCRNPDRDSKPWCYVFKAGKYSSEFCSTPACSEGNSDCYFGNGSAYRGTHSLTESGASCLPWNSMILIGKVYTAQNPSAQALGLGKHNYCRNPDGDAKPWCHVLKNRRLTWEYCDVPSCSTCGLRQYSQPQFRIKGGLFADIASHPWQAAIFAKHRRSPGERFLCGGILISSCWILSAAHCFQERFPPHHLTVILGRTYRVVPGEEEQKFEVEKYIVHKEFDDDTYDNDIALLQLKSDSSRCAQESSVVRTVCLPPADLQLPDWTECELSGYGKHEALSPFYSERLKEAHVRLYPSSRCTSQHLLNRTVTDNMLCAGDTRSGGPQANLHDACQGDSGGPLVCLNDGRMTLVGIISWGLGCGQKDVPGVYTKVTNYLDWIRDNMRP
substance,measurement,setting,value
S100A10 (from UniProt P60903),Kd,[1],0.36 µM
same,Kd,[2],1.81 µM
same,Kd,[3],0.45 µM
